Measured values as given in publication PMC13066097.

Target: anti-PcrV scFv conjugated with the mouse IgG1 hinge, CH2 and CH3 domains, scFv-m166-mFc (recombinant protein) (mouse)
Assay: non-reducing SDS-PAGE with immunoblot

stoichiometry N: 2
Substance: anti-PcrV scFv conjugated with the mouse IgG1 hinge, CH2 and CH3 domains, scFv-m166-mFc (recombinant protein) (Fc fusion)
